Assay results as given in article PMC2680334, “Polo-Like Kinase 1 Directs Assembly of the HsCyk-4 RhoGAP/Ect2 RhoGEF Complex to Initiate Cleavage Furrow Formation” (PLoS Biology, 2009).
Blank lines part the entries; values can stand above or below the molecule they belong to.

B2: Ect2-BRCT (1–421), soluble, CBD removed by TEV (domain or fragment, UniProt Q9H8V3-4 1-421, looked up)
chain: MAENSVLTSTTGRTSLADSSIFDSKVTEISKENLLIGSTSYVEEEMPQIETRVILVQEAGKQEELIKALKDIKVGFVKMESVEEFEGLDSPEFENVFVVTDFQDSVFNDLYKADCRVIGPPVVLNCSQKGEPLPFSCRPLYCTSMMNLVLCFTGFRKKEELVRLVTLVHHMGGVIRKDFNSKVTHLVANCTQGEKFRVAVSLGTPIMKPEWIYKAWERRNEQDFYAAVDDFRNEFKVPPFQDCILSFLGFSDEEKTNMEEMTEMQGGKYLPLGDERCTHLVVEENIVKDLPFEPSKKLYVVKQEWFWGSIQMDARAGETMYLYEKANTPELKKSVSMLSLNTPNSNRKRRRLKETLAQLSRETDVSPFPPRKRPSAEHSLSIGSLLDISNTPESSINYGDTPKSCTKSSKSSTPVPSKQSA
notes: Ect2 N terminus with the BRCT repeats, residues 1–421; the printed UniProt entry is the human protein; also called soluble Ect2-BRCT; source: E. coli BL21 (DE3) RIL, purified on chitin beads, eluted by TEV cleavage

Experiments:
Ect2 Ect2-BRCT, 1-421 [1] = target: Ect2 Ect2-BRCT, 1-421 (UniProt Q9H8V3); assay: CBD bead pull-down, Coomassie; conditions: reference: 4A without Plk1
Ect2 Ect2-BRCT, 1-421 [2] = target: Ect2 Ect2-BRCT, 1-421 (UniProt Q9H8V3); assay: CBD bead pull-down, Coomassie or blot; conditions: reference: HsCyk-4-Nt without Plk1; sites S149,S157,S164,S170
[3] = target: B2; assay: pull-down; 100 nM CBD fusion on chitin beads, with or without 50 nM Plk1-T210D 1–306 and ATP (60 min, 30°C), washed; soluble partner added at equimolar amounts; 20 mM HEPES pH 7.2, 150 mM NaCl, 5 mM MgCl2, 1 mM DTT, 0.1% Triton X-100; 90 min at 4°C; Coomassie staining or Western blot; conditions: both partners purified
[4] = target: T1, CBD–HsCyk-4-Nt (1–288) phosphorylated by Plk1, immobilised (UniProt Q9H0H5 1-288, phosphorylated in vitro by Plk1-T210D (1–306); Ser149, Ser157, Ser164 and Ser170 named as the sites); assay: as above; conditions: both partners purified
T1 construct: HsCyk-4/MgcRacGAP N terminus, residues 1–288; the printed UniProt entry is the human protein; also called HsCyk-4-wt (with Plk1); source: E. coli BL21 (DE3) RIL, purified on chitin beads, phosphorylated on the beads with Plk1-T210D 1–306
T1 sequence (looked up): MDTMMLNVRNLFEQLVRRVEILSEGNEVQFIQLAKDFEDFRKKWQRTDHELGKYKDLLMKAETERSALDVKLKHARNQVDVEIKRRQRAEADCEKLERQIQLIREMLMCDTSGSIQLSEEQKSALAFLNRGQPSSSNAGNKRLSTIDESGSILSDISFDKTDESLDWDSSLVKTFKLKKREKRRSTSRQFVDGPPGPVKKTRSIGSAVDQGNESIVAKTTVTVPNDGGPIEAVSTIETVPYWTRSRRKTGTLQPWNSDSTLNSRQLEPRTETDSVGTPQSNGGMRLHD

[5] = target: T2, CBD–HsCyk-4-Nt-4A (1–288), incubated with Plk1, immobilised (UniProt Q9H0H5 1-288, Ser149 to Ala | Ser157 to Ala | Ser164 to Ala | Ser170 to Ala, incubated with Plk1-T210D (1–306) and ATP; remaining phosphorylation sites not stated); assay: as above; conditions: both partners purified
T2 construct: HsCyk-4/MgcRacGAP N terminus, residues 1–288, four serines changed to alanine; also called HsCyk-4-4A; source: E. coli BL21 (DE3) RIL, purified on chitin beads, incubated on the beads with Plk1-T210D 1–306 and ATP
T2 sequence (looked up): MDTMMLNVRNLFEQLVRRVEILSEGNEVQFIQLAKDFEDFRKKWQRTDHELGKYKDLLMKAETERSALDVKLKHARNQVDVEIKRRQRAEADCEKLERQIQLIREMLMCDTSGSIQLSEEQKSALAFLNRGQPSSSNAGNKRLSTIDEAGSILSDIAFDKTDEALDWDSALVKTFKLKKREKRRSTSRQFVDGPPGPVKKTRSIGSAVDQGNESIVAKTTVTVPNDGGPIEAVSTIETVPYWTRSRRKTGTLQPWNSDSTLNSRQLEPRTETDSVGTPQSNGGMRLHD

[6] = target: T3, CBD–HsCyk-4-Nt-4D (1–288), incubated with Plk1, immobilised (UniProt Q9H0H5 1-288, Ser149 to Asp | Ser157 to Asp | Ser164 to Asp | Ser170 to Asp, incubated with Plk1-T210D (1–306) and ATP; remaining phosphorylation sites not stated); assay: as above; conditions: both partners purified
T3 construct: HsCyk-4/MgcRacGAP N terminus, residues 1–288, four serines changed to aspartate; also called HsCyk-4-4D (with Plk1); source: E. coli BL21 (DE3) RIL, purified on chitin beads, incubated on the beads with Plk1-T210D 1–306 and ATP
T3 sequence (looked up): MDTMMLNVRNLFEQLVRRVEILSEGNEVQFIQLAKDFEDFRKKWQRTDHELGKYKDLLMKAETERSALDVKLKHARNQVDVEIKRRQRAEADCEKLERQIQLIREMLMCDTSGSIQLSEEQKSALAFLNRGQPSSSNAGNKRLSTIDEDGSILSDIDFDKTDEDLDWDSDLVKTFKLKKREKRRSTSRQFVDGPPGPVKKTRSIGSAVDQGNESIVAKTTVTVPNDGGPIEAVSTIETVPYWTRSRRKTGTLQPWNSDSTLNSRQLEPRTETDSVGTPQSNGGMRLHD

fold change (Ect2 Ect2-BRCT, 1-421 [1]): 3.1 fold
Molecule: HsCyk-4/MgcRacGAP HsCyk-4-Nt, 1-288 (from UniProt Q9H0H5) 4A treated with Plk1 and ATP

fold change (Ect2 Ect2-BRCT, 1-421 [2]): 20.2 fold
Molecule: HsCyk-4/MgcRacGAP HsCyk-4-Nt, 1-288 (from UniProt Q9H0H5) HsCyk-4-Nt treated with Plk1-T210D kinase domain and ATP

binding result [3]: binds
B1: CBD–HsCyk-4-Nt-4D (1–288), not incubated with Plk1, immobilised (domain or fragment, UniProt Q9H0H5 1-288, looked up)
chain: MDTMMLNVRNLFEQLVRRVEILSEGNEVQFIQLAKDFEDFRKKWQRTDHELGKYKDLLMKAETERSALDVKLKHARNQVDVEIKRRQRAEADCEKLERQIQLIREMLMCDTSGSIQLSEEQKSALAFLNRGQPSSSNAGNKRLSTIDEDGSILSDIDFDKTDEDLDWDSDLVKTFKLKKREKRRSTSRQFVDGPPGPVKKTRSIGSAVDQGNESIVAKTTVTVPNDGGPIEAVSTIETVPYWTRSRRKTGTLQPWNSDSTLNSRQLEPRTETDSVGTPQSNGGMRLHD
notes: HsCyk-4/MgcRacGAP N terminus, residues 1–288, four serines changed to aspartate; also called HsCyk-4-4D; source: E. coli BL21 (DE3) RIL, purified on chitin beads, kept on the beads

Molecule: B2
fold stimulation of binding upon Plk1 phosphorylation (against the protein without Plk1) [4]: 20.2 fold
fold stimulation of binding upon Plk1 phosphorylation (against the protein without Plk1) [5]: 3.1 fold
fold stimulation of binding upon Plk1 phosphorylation (against the protein without Plk1) [6]: 1.7 fold
